Source: paper doi:10.1101/2025.05.29.656919 (bioRxiv, 2025)

Experiments:
Test in all cases: pull-down
[1] = target: T1, Glutathione S-transferase-fused VDAC3 (Arabidopsis, UniProt Q9SMX3 1-274)
T1 sequence (looked up): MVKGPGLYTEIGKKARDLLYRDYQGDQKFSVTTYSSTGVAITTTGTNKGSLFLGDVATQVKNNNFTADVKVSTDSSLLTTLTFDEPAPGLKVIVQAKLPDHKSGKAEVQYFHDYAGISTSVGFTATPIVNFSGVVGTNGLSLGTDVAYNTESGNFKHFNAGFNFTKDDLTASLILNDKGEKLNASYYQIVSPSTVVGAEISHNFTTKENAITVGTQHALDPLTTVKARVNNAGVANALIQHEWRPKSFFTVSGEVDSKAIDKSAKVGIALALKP

[2] = target: T2, Glutathione S-transferase-fused VDAC1 (Arabidopsis, UniProt Q9SRH5 1-276)
T2 sequence (looked up): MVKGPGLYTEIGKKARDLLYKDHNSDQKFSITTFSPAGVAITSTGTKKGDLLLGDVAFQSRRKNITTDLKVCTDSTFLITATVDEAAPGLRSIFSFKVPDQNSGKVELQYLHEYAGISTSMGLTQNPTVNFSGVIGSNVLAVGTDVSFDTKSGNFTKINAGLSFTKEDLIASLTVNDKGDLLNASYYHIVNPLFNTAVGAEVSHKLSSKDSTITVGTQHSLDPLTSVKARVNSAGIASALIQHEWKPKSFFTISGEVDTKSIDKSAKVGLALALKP

[3] = target: T3, Glutathione S-transferase-fused VDAC2 (Arabidopsis, UniProt Q9FJX3 1-276)
T3 sequence (looked up): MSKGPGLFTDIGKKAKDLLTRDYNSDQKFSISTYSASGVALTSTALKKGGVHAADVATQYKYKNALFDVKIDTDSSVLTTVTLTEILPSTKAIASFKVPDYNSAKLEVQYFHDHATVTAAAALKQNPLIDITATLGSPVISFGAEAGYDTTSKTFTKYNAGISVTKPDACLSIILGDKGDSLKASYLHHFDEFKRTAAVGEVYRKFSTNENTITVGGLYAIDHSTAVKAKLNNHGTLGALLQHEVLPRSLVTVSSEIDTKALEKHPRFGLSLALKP

Measured: binding result

B1: 6×His-tagged ATG8e (natural protein, Arabidopsis, UniProt Q8S926 1-118, looked up)
chain: MNKGSIFKMDNDFEKRKAEAGRIREKYPDRIPVIVEKAEKSEVPNIDKKKYLVPSDLTVGQFVYVIRKRIKLSAEKAIFIFVDNVLPPTGELMSSVYEDKKDEDGFLYITYSGENTFG
binds: all assays above

B2: ATG8e with UDS mutation (I78A, F79A, I80A) (natural protein, Arabidopsis, UniProt Q8S926 1-118, looked up)
chain: MNKGSIFKMDNDFEKRKAEAGRIREKYPDRIPVIVEKAEKSEVPNIDKKKYLVPSDLTVGQFVYVIRKRIKLSAEKAAAAFVDNVLPPTGELMSSVYEDKKDEDGFLYITYSGENTFG
binds: all assays above
